Laboratory results taken from patent US20220040297A1 (Chugai, published 2022).

What was measured:
CD3ε homodimer protein [1] = target: T1, CD3ε homodimer protein (human, UniProt P07766 23-126, limits assumed); assay: SPR, CD3e immobilized
T1 construct: Whole entry named for the human CD3 epsilon chain
Description: Each one-amino acid altered form constructed, expressed, and purified in the paragraph (6-2) was evaluated using Biacore T200 (GE Healthcare Japan Corp.). An appropriate amount of CD3ε homodimer protein was immobilized onto Sensor chip CM4 (GE Healthcare Japan Corp.) by the amine coupling method. Then, the antibody having an appropriate concentration was injected thereto as an analyte and allowed to interact with the CD3ε homodimer protein on the sensor chip. Then, the sensor chip was regenerated by the injection of 10 mmol/L glycine-HCl (pH 1.5). The assay was conducted at 25° C., and HBS-EP+ (GE Healthcare Japan Corp.) was used as a running buffer. […] Each parameter was calculated using Biacore T200 Evaluation Software (GE Healthcare Japan Corp.).
Specifically, when the amount of the GLS3000-containing antibody bound was defined as X and the amount of the L chain one-amino acid altered form bound was defined as Y, a value of Z (ratio of amounts bound)=Y/X was used.

CD3ε homodimer protein [2] = target: T2, CD3ε homodimer protein (human, UniProt P07766 23-126, limits assumed, sulfo-tag or biotin label in some ECL assays); assay: SPR, CD3ε homodimer on chip;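 further: biacore SPR with antibody variants flowed as analyte over amine-coupled CD3ε homodimer on a CM chip, bound amount of each single-residue H chain variant over that of parent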
T2 construct: also called human CD3ε homodimer protein; CD3 (CD3ε)
T2 sequence (P07766 23-126 limits assumed): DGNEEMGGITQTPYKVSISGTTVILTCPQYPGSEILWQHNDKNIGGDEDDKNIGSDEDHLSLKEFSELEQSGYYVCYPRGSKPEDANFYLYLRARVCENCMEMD

T1 sequence (P07766 23-126 limits assumed): as above

Binder | KD ratio to GLS3000 (CD3ε homodimer protein [1]) | ratio of amounts bound vs CE115HA000 (CD3ε homodimer protein [2])
GLS3000 F55K (antibody, IgG1, name in Kabat numbering, V domains shown) VH: QVQLVESGGGVVQPGRSLRLSCAASGFTFSNAWMHWVRQAPGKGLEWVAQIKAKSNNYATYYAESVKGRFTISRDDSKNSLYLQMNSLKTEDTAVYYCRYVHYGAYYGVDAWGQGTTVTVSS VL: DIVMTQSPLSLPVTPGEPASISCRSSQSLVHSNRNTYLHWYQQKPGQAPRLLIYKVSNRKSGVPDRFSGSGSGTDFTLKISRVEAEDVGVYYCGQGTQVPYTFGQGTKLEIK | 1.22 | 
CE115HA000 Y100Q (antibody, name in Kabat numbering, V domains shown) VH: QVQLVESGGGVVQPGRSLRLSCAASGFTFSNAWMHWVRQAPGKGLEWVAQIKAKSNNYATYYAESVKGRFTISRDDSKNSLYLQMNSLKTEDTAVYYCRYVHYGAQYGVDAWGQGTTVTVSS VL: DIVMTQSPLSLPVTPGEPASISCRSSQSLVHSNRNTYLHWYQQKPGQAPRLLIYKVSNRFSGVPDRFSGSGSGTDFTLKISRVEAEDVGVYYCGQGTQVPYTFGQGTKLEIK |  | 0.8
CE115HA000 Y59A (antibody, name in Kabat numbering, V domains shown) VH: QVQLVESGGGVVQPGRSLRLSCAASGFTFSNAWMHWVRQAPGKGLEWVAQIKAKSNNYATYAAESVKGRFTISRDDSKNSLYLQMNSLKTEDTAVYYCRYVHYGAYYGVDAWGQGTTVTVSS VL: DIVMTQSPLSLPVTPGEPASISCRSSQSLVHSNRNTYLHWYQQKPGQAPRLLIYKVSNRFSGVPDRFSGSGSGTDFTLKISRVEAEDVGVYYCGQGTQVPYTFGQGTKLEIK |  | 0.35
CE115HA000 Y59S (antibody, name in Kabat numbering, V domains shown) VH: QVQLVESGGGVVQPGRSLRLSCAASGFTFSNAWMHWVRQAPGKGLEWVAQIKAKSNNYATYSAESVKGRFTISRDDSKNSLYLQMNSLKTEDTAVYYCRYVHYGAYYGVDAWGQGTTVTVSS VL: DIVMTQSPLSLPVTPGEPASISCRSSQSLVHSNRNTYLHWYQQKPGQAPRLLIYKVSNRFSGVPDRFSGSGSGTDFTLKISRVEAEDVGVYYCGQGTQVPYTFGQGTKLEIK |  | 0.94
CE115HA000 Y58S (antibody, name in Kabat numbering, V domains shown) VH: QVQLVESGGGVVQPGRSLRLSCAASGFTFSNAWMHWVRQAPGKGLEWVAQIKAKSNNYATSYAESVKGRFTISRDDSKNSLYLQMNSLKTEDTAVYYCRYVHYGAYYGVDAWGQGTTVTVSS VL: DIVMTQSPLSLPVTPGEPASISCRSSQSLVHSNRNTYLHWYQQKPGQAPRLLIYKVSNRFSGVPDRFSGSGSGTDFTLKISRVEAEDVGVYYCGQGTQVPYTFGQGTKLEIK |  | 0.18
CE115HA000 Y97D (antibody, name in Kabat numbering, V domains shown) VH: QVQLVESGGGVVQPGRSLRLSCAASGFTFSNAWMHWVRQAPGKGLEWVAQIKAKSNNYATYYAESVKGRFTISRDDSKNSLYLQMNSLKTEDTAVYYCRYVHDGAYYGVDAWGQGTTVTVSS VL: DIVMTQSPLSLPVTPGEPASISCRSSQSLVHSNRNTYLHWYQQKPGQAPRLLIYKVSNRFSGVPDRFSGSGSGTDFTLKISRVEAEDVGVYYCGQGTQVPYTFGQGTKLEIK |  | 0.24
GLS3000 G89A (antibody, IgG1, name in Kabat numbering, V domains shown) VH: QVQLVESGGGVVQPGRSLRLSCAASGFTFSNAWMHWVRQAPGKGLEWVAQIKAKSNNYATYYAESVKGRFTISRDDSKNSLYLQMNSLKTEDTAVYYCRYVHYGAYYGVDAWGQGTTVTVSS VL: DIVMTQSPLSLPVTPGEPASISCRSSQSLVHSNRNTYLHWYQQKPGQAPRLLIYKVSNRFSGVPDRFSGSGSGTDFTLKISRVEAEDVGVYYCAQGTQVPYTFGQGTKLEIK | 1.3 | 
CE115HA000 Y97P (antibody, name in Kabat numbering, V domains shown) VH: QVQLVESGGGVVQPGRSLRLSCAASGFTFSNAWMHWVRQAPGKGLEWVAQIKAKSNNYATYYAESVKGRFTISRDDSKNSLYLQMNSLKTEDTAVYYCRYVHPGAYYGVDAWGQGTTVTVSS VL: DIVMTQSPLSLPVTPGEPASISCRSSQSLVHSNRNTYLHWYQQKPGQAPRLLIYKVSNRFSGVPDRFSGSGSGTDFTLKISRVEAEDVGVYYCGQGTQVPYTFGQGTKLEIK |  | 0.11
CE115HA000 Y100A (antibody, name in Kabat numbering, V domains shown) VH: QVQLVESGGGVVQPGRSLRLSCAASGFTFSNAWMHWVRQAPGKGLEWVAQIKAKSNNYATYYAESVKGRFTISRDDSKNSLYLQMNSLKTEDTAVYYCRYVHYGAAYGVDAWGQGTTVTVSS VL: DIVMTQSPLSLPVTPGEPASISCRSSQSLVHSNRNTYLHWYQQKPGQAPRLLIYKVSNRFSGVPDRFSGSGSGTDFTLKISRVEAEDVGVYYCGQGTQVPYTFGQGTKLEIK |  | 9.9
CE115HA000 Y100aS (antibody, name in Kabat numbering, V domains shown) VH: QVQLVESGGGVVQPGRSLRLSCAASGFTFSNAWMHWVRQAPGKGLEWVAQIKAKSNNYATYYAESVKGRFTISRDDSKNSLYLQMNSLKTEDTAVYYCRYVHYGAYSGVDAWGQGTTVTVSS VL: DIVMTQSPLSLPVTPGEPASISCRSSQSLVHSNRNTYLHWYQQKPGQAPRLLIYKVSNRFSGVPDRFSGSGSGTDFTLKISRVEAEDVGVYYCGQGTQVPYTFGQGTKLEIK |  | 0.64
CE115HA000 Y100aG (antibody, name in Kabat numbering, V domains shown) VH: QVQLVESGGGVVQPGRSLRLSCAASGFTFSNAWMHWVRQAPGKGLEWVAQIKAKSNNYATYYAESVKGRFTISRDDSKNSLYLQMNSLKTEDTAVYYCRYVHYGAYGGVDAWGQGTTVTVSS VL: DIVMTQSPLSLPVTPGEPASISCRSSQSLVHSNRNTYLHWYQQKPGQAPRLLIYKVSNRFSGVPDRFSGSGSGTDFTLKISRVEAEDVGVYYCGQGTQVPYTFGQGTKLEIK |  | 1.23
CE115HA000 Y100aF (antibody, name in Kabat numbering, V domains shown) VH: QVQLVESGGGVVQPGRSLRLSCAASGFTFSNAWMHWVRQAPGKGLEWVAQIKAKSNNYATYYAESVKGRFTISRDDSKNSLYLQMNSLKTEDTAVYYCRYVHYGAYFGVDAWGQGTTVTVSS VL: DIVMTQSPLSLPVTPGEPASISCRSSQSLVHSNRNTYLHWYQQKPGQAPRLLIYKVSNRFSGVPDRFSGSGSGTDFTLKISRVEAEDVGVYYCGQGTQVPYTFGQGTKLEIK |  | 0.87
CE115HA000 Y100aH (antibody, name in Kabat numbering, V domains shown) VH: QVQLVESGGGVVQPGRSLRLSCAASGFTFSNAWMHWVRQAPGKGLEWVAQIKAKSNNYATYYAESVKGRFTISRDDSKNSLYLQMNSLKTEDTAVYYCRYVHYGAYHGVDAWGQGTTVTVSS VL: DIVMTQSPLSLPVTPGEPASISCRSSQSLVHSNRNTYLHWYQQKPGQAPRLLIYKVSNRFSGVPDRFSGSGSGTDFTLKISRVEAEDVGVYYCGQGTQVPYTFGQGTKLEIK |  | 0.9
CE115HA000 Y58Q (antibody, name in Kabat numbering, V domains shown) VH: QVQLVESGGGVVQPGRSLRLSCAASGFTFSNAWMHWVRQAPGKGLEWVAQIKAKSNNYATQYAESVKGRFTISRDDSKNSLYLQMNSLKTEDTAVYYCRYVHYGAYYGVDAWGQGTTVTVSS VL: DIVMTQSPLSLPVTPGEPASISCRSSQSLVHSNRNTYLHWYQQKPGQAPRLLIYKVSNRFSGVPDRFSGSGSGTDFTLKISRVEAEDVGVYYCGQGTQVPYTFGQGTKLEIK |  | 0.19

Other lines, results leading:

KD ratio to GLS3000 (CD3ε homodimer protein [1]) | ratio of amounts bound vs CE115HA000 (CD3ε homodimer protein [2]) | Binder
 | 0.48 | CE115HA000 Y100P (antibody, name in Kabat numbering, V domains shown) VH: QVQLVESGGGVVQPGRSLRLSCAASGFTFSNAWMHWVRQAPGKGLEWVAQIKAKSNNYATYYAESVKGRFTISRDDSKNSLYLQMNSLKTEDTAVYYCRYVHYGAPYGVDAWGQGTTVTVSS VL: DIVMTQSPLSLPVTPGEPASISCRSSQSLVHSNRNTYLHWYQQKPGQAPRLLIYKVSNRFSGVPDRFSGSGSGTDFTLKISRVEAEDVGVYYCGQGTQVPYTFGQGTKLEIK
 | 0.52 | CE115HA000 Y100D (antibody, name in Kabat numbering, V domains shown) VH: QVQLVESGGGVVQPGRSLRLSCAASGFTFSNAWMHWVRQAPGKGLEWVAQIKAKSNNYATYYAESVKGRFTISRDDSKNSLYLQMNSLKTEDTAVYYCRYVHYGADYGVDAWGQGTTVTVSS VL: DIVMTQSPLSLPVTPGEPASISCRSSQSLVHSNRNTYLHWYQQKPGQAPRLLIYKVSNRFSGVPDRFSGSGSGTDFTLKISRVEAEDVGVYYCGQGTQVPYTFGQGTKLEIK
 | 0.56 | CE115HA000 Y100aQ (antibody, name in Kabat numbering, V domains shown) VH: QVQLVESGGGVVQPGRSLRLSCAASGFTFSNAWMHWVRQAPGKGLEWVAQIKAKSNNYATYYAESVKGRFTISRDDSKNSLYLQMNSLKTEDTAVYYCRYVHYGAYQGVDAWGQGTTVTVSS VL: DIVMTQSPLSLPVTPGEPASISCRSSQSLVHSNRNTYLHWYQQKPGQAPRLLIYKVSNRFSGVPDRFSGSGSGTDFTLKISRVEAEDVGVYYCGQGTQVPYTFGQGTKLEIK
 | 1.03 | CE115HA000 Y100W (antibody, name in Kabat numbering, V domains shown) VH: QVQLVESGGGVVQPGRSLRLSCAASGFTFSNAWMHWVRQAPGKGLEWVAQIKAKSNNYATYYAESVKGRFTISRDDSKNSLYLQMNSLKTEDTAVYYCRYVHYGAWYGVDAWGQGTTVTVSS VL: DIVMTQSPLSLPVTPGEPASISCRSSQSLVHSNRNTYLHWYQQKPGQAPRLLIYKVSNRFSGVPDRFSGSGSGTDFTLKISRVEAEDVGVYYCGQGTQVPYTFGQGTKLEIK
 | 0.8 | CE115HA000 Y100V (antibody, name in Kabat numbering, V domains shown) VH: QVQLVESGGGVVQPGRSLRLSCAASGFTFSNAWMHWVRQAPGKGLEWVAQIKAKSNNYATYYAESVKGRFTISRDDSKNSLYLQMNSLKTEDTAVYYCRYVHYGAVYGVDAWGQGTTVTVSS VL: DIVMTQSPLSLPVTPGEPASISCRSSQSLVHSNRNTYLHWYQQKPGQAPRLLIYKVSNRFSGVPDRFSGSGSGTDFTLKISRVEAEDVGVYYCGQGTQVPYTFGQGTKLEIK
 | 0.66 | CE115HA000 Y59E (antibody, name in Kabat numbering, V domains shown) VH: QVQLVESGGGVVQPGRSLRLSCAASGFTFSNAWMHWVRQAPGKGLEWVAQIKAKSNNYATYEAESVKGRFTISRDDSKNSLYLQMNSLKTEDTAVYYCRYVHYGAYYGVDAWGQGTTVTVSS VL: DIVMTQSPLSLPVTPGEPASISCRSSQSLVHSNRNTYLHWYQQKPGQAPRLLIYKVSNRFSGVPDRFSGSGSGTDFTLKISRVEAEDVGVYYCGQGTQVPYTFGQGTKLEIK
 | 0.7 | CE115HA000 Y59D (antibody, name in Kabat numbering, V domains shown) VH: QVQLVESGGGVVQPGRSLRLSCAASGFTFSNAWMHWVRQAPGKGLEWVAQIKAKSNNYATYDAESVKGRFTISRDDSKNSLYLQMNSLKTEDTAVYYCRYVHYGAYYGVDAWGQGTTVTVSS VL: DIVMTQSPLSLPVTPGEPASISCRSSQSLVHSNRNTYLHWYQQKPGQAPRLLIYKVSNRFSGVPDRFSGSGSGTDFTLKISRVEAEDVGVYYCGQGTQVPYTFGQGTKLEIK
